The EC50 is the concentration that produces a half-maximal response. The low end stands for an effect from little substance, the high end for a need for much substance. The term IC50 denotes the point on the concentration scale where inhibition reaches its midpoint.

Assay [1] addresses VLA-4 on tumor cell lines (Mec1, JM1, U266, H929, HL60, KG1) (UniProt P13612). As to the kind of experiment: flow cytometry on KG1 (AML) cells. In general terms: Flow cytometry measures light scatter and fluorescence of single cells or particles in a stream.
For assay [2] the target is unchanged. As to the kind of experiment: flow cytometry on H929 (MM) cells.
Assay [3] has the same target. As to the kind of experiment: flow cytometry on JM1 (CLL) cells.
For assay [4] the target is unchanged. Put plainly: flow cytometry on Mec1 (CLL) cells.
Assay [5] has the same target. Put plainly: flow cytometry on HL60 (AML) cells.
In assay [6] the target is T1, α4β1 (UniProt P13612 34-970; P05556 21-728).
T1 construct: The preparation is not described; also called VLA-4; alpha4beta1 integrin
Put plainly: competition ELISA; α4β1 preincubated with test mAb, competitor murine HP1/2. A general note: In an ELISA, binding on a coated surface is turned into a signal by an enzyme label.

Assay [7] has as its target T1, α4β1. Put plainly: competition ELISA; mixture of test mAb and mouse HP1/2 (competitor) on α4β1.
The target in assay [8] is VLA-4 on tumor cell lines (Mec1, JM1, U266, H929, HL60, KG1) (UniProt P13612). As to the kind of experiment: flow cytometry on U266 (MM) cells.
For assay [9] the target is unchanged. As to the kind of experiment: cell-based or functional assay.

Humanized HP1/2 (HuHP1/2) (antibody) had an EC50 in [1] of 190 pM. Also, the EC50 in assay [2] came out at 910 pM. The EC50 in assay [3] is 210 pM. The EC50 in assay [4] is 110 pM. The EC50 in assay [5] was determined as 110 pM. In addition, the IC50 in the assay with α4β1 [6] was found to be 1050 pM. Besides, the IC50 in the assay with α4β1 [7] was determined as 1410 pM. In assay [8], the concentration for a half-maximal effect (EC50) is 460 pM. In [9], this molecule came in with an IC50 (nM), inhibition of adhesion of H929 (MM) cells to Fibronectin-coated wells of 0.21 nM; an IC50 (nM), inhibition of adhesion of H929 (MM) cells to VCAM1-Ig-coated wells of 1.35 nM; an IC50 (nM), inhibition of adhesion of HL60 (AML) cells to Fibronectin-coated wells of 0.16 nM; an IC50 (nM), inhibition of adhesion of HL60 (AML) cells to VCAM1-Ig-coated wells of 0.91 nM. In assay [9], this molecule came in with an IC50 (nM), inhibition of adhesion of JM1 (CLL) cells to VCAM1-Ig-coated wells of 0.12 nM; an IC50 (nM), inhibition of adhesion of KG1 (AML) cells to Fibronectin-coated wells of 0.05 nM; an IC50 (nM), inhibition of adhesion of KG1 (AML) cells to VCAM1-Ig-coated wells of 0.1 nM; an IC50 (nM), inhibition of adhesion of Mec1 (CLL) cells to Fibronectin-coated wells of 0.1 nM. In addition, in assay [9], the IC50 (nM), inhibition of adhesion of Mec1 (CLL) cells to VCAM1-Ig-coated wells came to 0.07 nM; the IC50 (nM), inhibition of adhesion of U266 (MM) cells to Fibronectin-coated wells stood at 0.14 nM; the IC50 (nM), inhibition of adhesion of U266 (MM) cells to VCAM1-Ig-coated wells stood at 0.13 nM; the antibody concentration giving maximal inhibition of HL60 cell binding to FN and VCAM1-Ig came to 20 µg/mL. For the same molecule, in [9], the antibody concentration giving maximal inhibition of Mec1 cell binding to FN and VCAM1-Ig turned out to be 20 µg/mL; the antibody concentration giving maximal inhibition of U266 cell binding to FN and VCAM1-Ig came out at 20 µg/mL.

B1: H1L0 (antibody, V domains shown)
VH: EVQLVQSGAEVKKPGATVKISCKASGFNIKDTYMHWVQQAPGKGLEWMGRIDPASGDTKYDPKFQVRVTITADTSTDTAYMELSSLRSEDTAVYYCADGMWVSTGYALDFWGQGTLVTVSS
VL: DIVMTQSPDSLAVSLGERATINCKASQSVTNDVAWYQQKPGQPPKLLIYYASNRYTGVPDRFSGSGSGTDFTLTISSLQAEDVAVYYCQQDYSSPYTFGQGTKVEIK
As for B1, the half-maximal inhibitory concentration (IC50) with α4β1 [6] worked out at 1870 pM; with α4β1 [7], 4460 pM.

B2: H1L2 (antibody, V domains shown)
VH: EVQLVQSGAEVKKPGATVKISCKASGFNIKDTYMHWVQQAPGKGLEWMGRIDPASGDTKYDPKFQVRVTITADTSTDTAYMELSSLRSEDTAVYYCADGMWVSTGYALDFWGQGTLVTVSS
VL: SIVMTQSPDSLAVSLGERATINCKASQSVTNDVAWYQQKPGQPPKLLIYYASNRYTGVPDRFSGSGYGTDFTLTISSLQAEDVAVYFCQQDYSSPYTFGQGTKVEIK
As for B2, the IC50 in the assay with α4β1 [6] turned out to be 900 pM; with α4β1 [7], 1340 pM.

B3: H1L3 (antibody, V domains shown)
VH: EVQLVQSGAEVKKPGATVKISCKASGFNIKDTYMHWVQQAPGKGLEWMGRIDPASGDTKYDPKFQVRVTITADTSTDTAYMELSSLRSEDTAVYYCADGMWVSTGYALDFWGQGTLVTVSS
VL: SIVMTQSPDSLAVSLGERATINCKASQSVTNDVAWYQQKPGQPPKLLIYYASNRYTGVPDRFSGSGYGTDFTFTISSLQAEDVATYFCQQDYSSPYTFGQGTKVEIK
Regarding B3, the IC50 with α4β1 [6] was 490 pM.

B4: H1L1 (antibody, V domains shown)
VH: EVQLVQSGAEVKKPGATVKISCKASGFNIKDTYMHWVQQAPGKGLEWMGRIDPASGDTKYDPKFQVRVTITADTSTDTAYMELSSLRSEDTAVYYCADGMWVSTGYALDFWGQGTLVTVSS
VL: SIVMTQSPDSLAVSLGERATINCKASQSVTNDVAWYQQKPGQPPKLLIYYASNRYTGVPDRFSGSGSGTDFTLTISSLQAEDVAVYFCQQDYSSPYTFGQGTKVEIK
As to B4, the figures for the IC50 with α4β1 [6] and with α4β1 [7] were 1670 pM and 4550 pM, respectively.

B5: Chimeric HP1/2 (antibody, V domains shown)
VH: EVQLQQSGAELVKPGASVKLSCTASGFNIKDTYMHWVKQRPEQGLEWIGRIDPASGDTKYDPKFQVKATITADTSSNTAWLQLSSLTSEDTAVYYCADGMWVSTGYALDFWGQGTTVTVSS
VL: SIVMTQTPKFLLVSAGDRVTITCKASQSVTNDVAWYQQKPGQSPKLLIYYASNRYTGVPDRFTGSGYGTDFTFTISTVQAEDLAVYFCQQDYSSPYTFGGGTKLEIK
notes: also called chimerized HP1/2 antibody; chimeric mAb
As to B5, the IC50 with α4β1 [6] was 1060 pM; in the assay with α4β1 [7], 1640 pM.

For the origin of these results see patent publication US20190365892A1 (Biogen, published 2019).
